Source: publication PMC6895282

Target: TM52 (TetR-MphR hybrid regulator) (synthetic chimera of TetR and MphR; …, UniProt P04483 1-52+Q9EVJ6:56-194, internal_change)
Assay: EMSA

B1: TM52 operator fragment (hybrid tet operator, 2-bp spacer) (dsDNA)
DNA 1: GCGGTGATACTCCCTATCAGTTGATAGAGAGAGCACATCA
DNA 2: TGATGTGCTCTCTCTATCAACTGATAGGGAGTATCACCGC
B1: binds.
